Assay results as given in the domain aggregation screens of Martell et al. (2025).

Test: soluble fraction after stress (log2 fold change); higher = more stays soluble; pooled small domains, quantitative proteomics
Conditions: stress: pH 4
In short: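 Pooled custom libraries of small protein domains were stressed at pH 4 and then measured by high-throughput quantitative proteomics. The fold change in the amount of each domain that stays soluble after the acid stress serves as a measure of aggregation propensity. Fold changes are given on a log2 scale, and higher values mean more of the domain stayed soluble.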
With “HMSVEYRKTLSDGNEYQIVKEKNGYVIKKSLNEGLDYLEPMKNRKYYSSYSQAFKRLNLIAKEVNINEGYD” the “soluble fraction (log2)” value was 0.0946. With “HMNSKSFIFHIEDEEGIRLDVFLADNLPDVSRSYVQKLIDEEHVKVNGQSAKSRLKTVSGMEITVDVPAPK” the “soluble fraction (log2)” value was -0.543. For “HMKGMIKVASMSLGADLGLYSRHLKYLGIVHRVVEESGGQSVYIQKLNDLHTAKESLELYLKNELKI”, the “soluble fraction (log2)” value was -0.476. With “HMTDFDWSLFTQQLKRFNLFLSYDDREKLQTFQTLYGLNELDLAEYVAKASAGEKNGLNFNYLRQLINKEK” the “soluble fraction (log2)” value was -1.08. With “HMYPQLIGFKVIDEDKGEVGVVKEVSESMHQILLTVMKGKKEILIPLAEEFITKVNRHKKELFMVLPDG” the “soluble fraction (log2)” value was -0.383. With “HMEQKISVPALVGRDIEEILADTEVTGNFTIKEADKRVASNRPVGEVLEQDPGTGESAVKGTIITVTVSAG” the “soluble fraction (log2)” value was -0.353. With “HMQPPKIISTVEPYREVVREYLKQGVEMTAIWQRLRENYQYTGSYSSVRRFVAQLEPRQPEA” the “soluble fraction (log2)” value was -0.135. For “HMGKVNTRNRNEGKFYKNGKKKPANWEYRFEAAPVNGKRQQISDAGYPTEKAAYEAGIAAYEKYNSAGSVN”, the “soluble fraction (log2)” value was 0.0128. With “HMVKGIVPNLIGKTQDEAKQMAEEYGFSIGTVSEKASDKPKGTVIEQSPKAGAKASGVTSINIVVSDGS” the “soluble fraction (log2)” value was -0.247. In the case of “HMKELVAGQTVRVHHSIGFGQTGTVTALNSLKTTLPNGLRTNTASILFQNNEKVVLPISNFDIIES”, the “soluble fraction (log2)” value was 0.403. With “HMKIPIIYQPLKNAKRIKIYIPYELKELRTIFKKINTTFWHPNQKLWSIIYTQENVALIKNLFGKNYKIVN” the “soluble fraction (log2)” value was -0.0514. With “HMIKISDYLSEEDLNFIKEMEKIYPYFDFDSEGNLILTKSIDELKDKYGFDEAFVSRLDTVLNSR” the “soluble fraction (log2)” value was -0.243. With “HMEAEGLDFAPMPGEIGKKLWQEVSKEAWAGWLKHQTMLVNENRLSFVDPAARKYLTEQTEAYFFG” the “soluble fraction (log2)” value was -0.248. For “HMNLYERFPIHELWKETFNETLDEEEHITFITSEFKPENIVLGQGFIAAPSKKDAVDWLKVIRTVLIFYDS”, the “soluble fraction (log2)” value was -1.61. With “HMSGRPPTYTAEERSAVIAAALSRPADLGLPFASWTLDRLVAYLGEKGIGMKRSRMSEVLLAEGLKW” the “soluble fraction (log2)” value was -0.0116. For “HMNNISKKIKELREQNNITQNKLANDLFIKQQTVAQWENGSRALKADSIISLAKYFNVSTDYLLGLTEN”, the “soluble fraction (log2)” value was -0.634. In the case of “HMADLPQATALADVKGDVQMQGIQFGYDPEKIIIHDLNLHARPGSLVAIVGPTGAGKTTIINLLMRFYD”, the “soluble fraction (log2)” value was 0.124. For “HMQDQVTLIVQVNGKLRGQISISTDATKELIEQTALANENVQKFVDGQSIKKIIIVPGRLVNIV”, the “soluble fraction (log2)” value was 0.22. For “HMDKSHYEELGVSRTATHAEIRRAYRHLMRTLHPDSNDGRVDAVRITKVNEAWNVLSQSSSRNAYDKSQV”, the “soluble fraction (log2)” value was -0.0249. With “HMNADLDIQNVNGNTPLWEAVMRYRGDGFFIEQLLKNGANPDIKNNYGVSPKSLARTIANYDVRRFFN” the “soluble fraction (log2)” value was -0.333. With “HMIDEQDLKKYILISTSVEELTDYLGATDRMLYDYLYSLKHVGQYWQLNERFLLDLYKLPNLVIVDKEDLE” the “soluble fraction (log2)” value was -0.351. With “HMSERVVVPDLTGKDLVAAQSELREISLAGREEGPGDKVRRQFPVAGVKVPKDTVVILYTED” the “soluble fraction (log2)” value was 0.117. With “HMLQGKVSFFNDEKGYGFIKDNNSKDSYFVHINKVEGEIAEGDKVTFELEKGPKGLVAANVKR” the “soluble fraction (log2)” value was -0.145. In the case of “HMLDPVLQREKDESFTDYHIRLFKNKDTYHIDTKTIATLLNKDQGTNYDESKWRKDFKQYERWNDYIMSKN”, the “soluble fraction (log2)” value was -0.155. For “HMAVSDAAEEYGKAGTPLVILAGKEYGSGSSRDWAAKGPYLQGVRAVLAESYERIHRSNLVGMGIVPLTYK”, the “soluble fraction (log2)” value was 0.109. In the case of “HMTENIPPVKIEEMRQKWQDIVLLHGVTSGRKIKSGQATYIWLYRNDQNWLLTFNSRHLSQPQV”, the “soluble fraction (log2)” value was -0.263. For “HMNFKNMIDSLSGILFKKDPSAAIIDIGGVRLKVFITVGSYEQLPAKGEQVEILTYLHVKEDILNLYG”, the “soluble fraction (log2)” value was -0.819. In the case of “HMPTPRVPMSKQRQILQLLQDGHLSTREIAAALHISKTSVGDIAKAARLAGLDWEAASKLSDEELSARIYK”, the “soluble fraction (log2)” value was 0.0991. In the case of “HMSSLKKISIDELSPGMYVHSIVEQKGSVKIKSQGKVLKQAVVDALRKRGVKTLLIDLSKQFNPETGEP”, the “soluble fraction (log2)” value was 0.346. With “HMIDIIEYIISEESKGLRADQGIALQNPQYSRSLIQKWIKKGSVLVNNKIIRTKEILLEGDKISITPEENI” the “soluble fraction (log2)” value was -2.29. With “HMTVDIADALRVLGLSDAPDWSDVRAAHRRAIVRTHPDAGGSAGDAARVNQAFDLLRKISGNGERPIPG” the “soluble fraction (log2)” value was 0.0966. For “HMEASSTAIQAMIRRLIDDENPRKPLSDAKLADLLKSSGIPVARRTVAKYREAMNISASHERVRI”, the “soluble fraction (log2)” value was 0.17. With “HMVDYYEILGVSPDASRKDIENAWRKKMREAHPDMGGSEDKAQLLNEAHKVLSDESARAEYDASR” the “soluble fraction (log2)” value was -0.0915. For “HMVERQVTVPNLTGLGVADAQRLAQSMELDIEVLGEQESTDARPGAVLQQTPGAGTRAAAGSVVSVLV”, the “soluble fraction (log2)” value was -0.179. With “HMPAMYKAERMNQILSILADQGDVDVGTLARQFGVSLVTIRKDLTYLESSGQLVRTHGGAIAVA” the “soluble fraction (log2)” value was -0.26. For “HMEHIDVSGRAFDVSVSRLKRARRLTMRIDTHKQLVKISAPLHVESSTIRAFLARNQNWLEQQVEKR”, the “soluble fraction (log2)” value was 0.199. With “HMGWEPTPVLVAARDISGGTVLDQDMLRVEAIPSRLVTPSIVRSDLLASVQDAKLLLPMKQGDLLNFNMLQ” the “soluble fraction (log2)” value was -0.49. For “HMTEWSIHEVAQRSGVTTRTLRHYDAIGILSPTRTGANGYRYYGPEALVRLQRILLLRDLGLALSDIAE”, the “soluble fraction (log2)” value was -1.66. In the case of “HMEAFAEAVASMLRKLQPEFAIDLVGPRELLVNGRRLDLENLYRMVNHEPVRGQEIVEHYLDQLFAG”, the “soluble fraction (log2)” value was -0.665. In the case of “HMPNGEAYQRFTYENDILEGRFEEWDSLGTDIVKGDYTAGVRHKKWLYYDSEGRRDKFVFLDMDSI”, the “soluble fraction (log2)” value was -0.345. In the case of “HMPNNNDIVLDRVSFGYHEKEVLHGIDMTIREGTVNALVGPSGSGKSTIAKLIAGLWDVDGGSISF”, the “soluble fraction (log2)” value was 0.137. In the case of “HMHINLEGLKKIDFRKKIGFLFGSEASGLSNKEVSYANYTLQIPTNINFKSLNLSHSLIIIAQFISSLLNS”, the “soluble fraction (log2)” value was 0.126. For “HMYVSGVPAITSIERVSTPGRRVYAGYTTVPKVIGGMGVSILTTSRGVMTDAEARRQKVGGELLAKV”, the “soluble fraction (log2)” value was -0.29. With “HMERPEVVAYRLAYASAESLRPALGLVASPSDLEIDERTNTLIVRAVPSVQERVAELVASLDI” the “soluble fraction (log2)” value was -0.889. With “HMANPFQELTERELDVLRQVAAGKNNREIAEALFIGEKTVKTHISNILSKLHLADRTQAAVYAWQQGMM” the “soluble fraction (log2)” value was -1.14. In the case of “HMINVLTPKQIEATTIAVKYGYYENPRTVSMRELSEISGIARSTLQEHLSKAEAALMILAAKSQL”, the “soluble fraction (log2)” value was -0.0956. In the case of “HMADQVLVMTRAVGQGDIVRNADIGLTSVAVDRAVATIPASQLDKIVGRHALVDLSPGQLLGSHSVGE”, the “soluble fraction (log2)” value was 0.107. For “HMDVQPTTTKTMFYTVQQGETLFSISRKFGISVEEITKKNPLASSGLTVGMELLLPEKKEINSTIQS”, the “soluble fraction (log2)” value was -0.0195. For “HMGLLVPELTAEENVSLAAMIAGVPRQQARSISADLLNRLGLGQMLDRRMGEMSGGQAQRVAIAPIYGKF”, the “soluble fraction (log2)” value was -0.129. With “HMGGEHPIPEDWAVNEANYEHGAKFYGYTRAHVDAEAQAFRDQYAANGKKYVDWDAHFRTFMRWQNERRYG” the “soluble fraction (log2)” value was -0.416. With “HMDQVYYDLKSLIELLPADQMEVLKMRYFEELSFKKIAQKIDVSINTALGRMRYALINLRALSKKHHID” the “soluble fraction (log2)” value was -1.02. In the case of “HMDKELILLWDRVKSKVWQMDIQDSQVANWFQRNYHLTVRLRDFDPPVPPDKFTAEQLASFIKDIERHT”, the “soluble fraction (log2)” value was -0.000327. In the case of “HMLPGLGPIERAQFMLQAIPGISPTRSAALIDKFGSIAGIAQASIKDIQTIEGIGKKTATTLYEVLNAG”, the “soluble fraction (log2)” value was -0.223. With “HMTMNYFIIENNQQVGPLTLEQLVARNITSDTLVWKEGMEDWQPAWKVDELHTVLDQIRANAEQ” the “soluble fraction (log2)” value was -1.19. With “HMGEEIRTWTDAQGRKIEARMSMLDGDQVLLELKDGRKIPYPLAKLSADDAHYARHFASASASD” the “soluble fraction (log2)” value was -0.00959. With “HMARTGSEELVGALATVREPLAPWGQVFVQGALWRARSADGGPVDAGQQVVVRAVEGLTLVVEPRD” the “soluble fraction (log2)” value was -0.166. With “HMSSFSESFHKALNNLDDKHKSVFSLRHFEGFSMKEIAETLNINEGTVKSRLFYATKTLAGALKEF” the “soluble fraction (log2)” value was -1.29. For “HMQLEPLVTSVIPVNFAKASDISGTIKGKEVGLLSERGNITAENRTNVLIVKDIRKSVDEINAMVKRLD”, the “soluble fraction (log2)” value was 0.151. In the case of “HMNEQVAVVSGSQVNVRSGPGTTSAVVGQVSKGDNLPVLNQSGDWYQIKLPGGNAGWVAGWLVSLRPTT”, the “soluble fraction (log2)” value was 0.237. For “HMGPVRRDLEINGRMVPLTIREHARATRITLRIEPGGQALRLTIPPGLPTREVDSFLTRHHGWLMTKLAHI”, the “soluble fraction (log2)” value was 0.0131. With “HMDISAFDTEFIISKFGGIRPMAQKLGVPVSTVQGWKQRQTIPQNRMGDILEAAKNYNLELTP” the “soluble fraction (log2)” value was 0.114. For “HMETLEDHRKKTRQQLFDALSHLLQTSTFESLTMAKIAEEAGVGRTAVYNHFQDKEALLLAFITYETGQ”, the “soluble fraction (log2)” value was -0.815. For “HMGWEDLVGKTAVVKVALAPVGMVFFRGEFWSAISETGRIEPGEEVTISRIDGLKLYVTKKRIM”, the “soluble fraction (log2)” value was ≥ 0.43. With “HMELGRQDSAQLGRWAAGILAKNGKKITGRTMEFFLSRTGDDMENISSELEKLISYTLGREVITEEDIEAV” the “soluble fraction (log2)” value was -0.757. In the case of “HMPFGIYGGKVSSLDDLKDKAAVLVPNDVSNEARALLLLEAQGLIKLKEGVGLEATRNDIVEN”, the “soluble fraction (log2)” value was -0.0596. For “HMLMDVRVPDIIGVEINQAKEILTASSLLIGKITYVSLPEIEKDLVIETSVLAGRRVSAGTVIDITVNKE”, the “soluble fraction (log2)” value was -0.87. With “HMKTKTFSPGEIVKIQTRDKSWQGTILESHDPEIILLKLTTGYNIGIRENEIINAKVIEKSKKDVKDAE” the “soluble fraction (log2)” value was 0.176. For “HMVSVLDHIVGIGAKRRQSLWNHFGTIDKIKAASIDELLKAPGMNRPSAEAVYYFFEAQRQLRGK”, the “soluble fraction (log2)” value was 0.0106. For “HMNENFPYRLKEMVVVQSRTWPGINKPGGVGQVMKINPEAGTVNVKYVLGGSEKNIELKYVTSNDLNSK”, the “soluble fraction (log2)” value was 0.063. With “HMHLLGASIAAYRKKAGMTQEDLGRALFVSGQAVSRWERGGTPDSDMLPKIADVLGISLDTLFGRS” the “soluble fraction (log2)” value was -0.269. For “HMYVVLYPGMARDEAVQVMNELQSRGIDYYEKNGNIYVPKTDENSLRMELANLGYPKTTNNYD”, the “soluble fraction (log2)” value was -0.188. In the case of “HMHLTRYLHTMIRAANLDDTLDFFVEKLGLIEAYRYSNEAGRFTLVFLSAPDDLESAQSRQAPLVEITYN”, the “soluble fraction (log2)” value was -0.329. With “HMLFQGDTPAENIILEILSKNGTTASDSIIKQSGLSVSDFNQAATMLEIKGLISNNGGNIWSL” the “soluble fraction (log2)” value was -0.254. For “HMSDEAGKVLQLLRENGGYLPYNDRSDPEDIYAFFSMSKKTFKMTAGNLYKQKKIIFTNTGIKLTE”, the “soluble fraction (log2)” value was 0.317. For “HMYSDERLQTFMELLPFFVEELSNKHVTRYNVWQNYREAYPNGYGRSQFFFHLGQNLEAKKK”, the “soluble fraction (log2)” value was -0.0353.
